B1: Endo-1,4-beta-xylanase A, P26514 (parent)
chain: MGSYALPRSGVRRSIRVLLLALVVGVLGTATALIAPPGAHAAESTLGAAAAQSGRYFGTAIASGRLSDSTYTSIAGREFNMVTAENEMKIDATEPQRGQFNFSSADRVYNWAVQNGKQVRGHTLAWHSQQPGWMQSLSGSALRQAMIDHINGVMAHYKGKIVQWDVVNEAFADGSSGARRDSNLQRSGNDWIEVAFRTARAADPSAKLCYNDYNVENWTWAKTQAMYNMVRDFKQRGVPIDCVGFQSHFNSGSPYNSNFRTTLQNFAALGVDVAITELDIQGAPASTYANVTNDCLAVSRCLGITVWGVRDSDSWRSEQTPLLFNNDGSKKAAYTAVLDALNGGDSSEPPADGGQIKGVGSGRCLDVPDASTSDGTQLQLWDCHSGTNQQWAATDAGELRVYGDKCLDAAGTSNGSKVQIYSCWGGDNQKWRLNSDGSVVGVQSGLCLDAVGNGTANGTLIQLYTCSNGSNQRWTRT

Variants of: B1
Conditions: Streptomyces lividans; pH 6; Thermal; CD; sodium phosphate 10 mM; structure 1XAS; whole UniProt chain shown

| Variant | Tm | change of melting temperature, mutant - wild type (higher = more stable) |
| --- | --- | --- |
| Y213A | 63 °C | -5 °C |
| Y213F | 67.1 °C | -0.9 °C |
| Y213S | 69.6 °C | 1.6 °C |
| W315H | 68.2 °C | 0.2 °C |
| W315A | 72.1 °C | 4.1 °C |
| W315F | 68.8 °C | 0.8 °C |
| W126F | 64 °C | -4 °C |
| W126H | 67 °C | -1 °C |
| W126A | 70 °C | 2 °C |
| W307A | 63.3 °C | -4.7 °C |
| W307H | 60.7 °C | -7.3 °C |
| W307F | 64.7 °C | -3.3 °C |
